How the values were obtained:
Assay in all cases: ELISA, construct coated on plate
hTIM3-Fc WT = target: T1, hTIM3-Fc WT (human)
T1 construct: also called hTIM-3-hFc

hTIM3-Fc murine BC loop = target: T2, hTIM3-Fc murine BC loop (human, BC loop replaced by mouse TIM-3)
T2 construct: Whole construct: chimeric ECD, linker and human IgG1 Fc; also called hTIM3-Fc BC loop chimera

hTIM3-Fc murine CC′ loop = target: T3, hTIM3-Fc murine CC′ loop (human, CC′ loop replaced by mouse TIM-3)
T3 construct: Whole construct: chimeric ECD, linker and human IgG1 Fc; also called hTIM3-Fc CC′ loop chimera

hTIM3-Fc murine DE loop = target: T4, hTIM3-Fc murine DE loop (human, DE loop replaced by mouse TIM-3)
T4 construct: Whole construct: chimeric ECD, linker and human IgG1 Fc; also called hTIM3-Fc DE loop chimera

hTIM3-Fc murine FG loop = target: T5, hTIM3-Fc murine FG loop (human, FG loop replaced by mouse TIM-3)
T5 construct: Whole construct: chimeric ECD, linker and human IgG1 Fc; also called hTIM3-Fc FG loop chimera

[1] = target: T6, hTIM3-Fc murine C′C″ loop (human, C′C″ loop replaced by mouse TIM-3)
T6 construct: Whole construct: chimeric ECD, linker and human IgG1 Fc; also called hTIM3-Fc C′C″ loop chimera

Binder | Absorbance at 450 nm (hTIM3-Fc WT) [A450] | Absorbance at 450 nm (hTIM3-Fc murine BC loop) [A450] | Absorbance at 450 nm (hTIM3-Fc murine CC′ loop) [A450] | Absorbance at 450 nm (hTIM3-Fc murine DE loop) [A450] | Absorbance at 450 nm (hTIM3-Fc murine FG loop) [A450] | Absorbance at 450 nm [1] [A450]
mAb91 (antibody, V domains shown, Mouse hybridoma antibody) VH: DVQFQESGPGLVKPSQSLSLTCSVTGYSITSGYYWNWIRQFPGNKLEWMGYISYDGSNNYNPSLKNRISITRDTSKNQFFLKLNSVTTEDTATYYCGRDGPYYYGSSYGYFDVWGTGTTVTVSS VL: DIVMTQAESSVPVTPGESVSISCRSSKSLLHSNGNTYLYWFLQRPGQSPQLLIHRMSNLASGVPDRFSGSGSGTAFTLRISRVEAEDMGVYYCMQHLEYPCTFGGGTKLEIK | 1.57 | 1.44 | 0.502 | 1.01 | 1.74 | 
mAb48 (antibody, V domains shown, Mouse hybridoma antibody) VH: QIQLQQSGPELVTPGTSVKISCKASGYTFTDYYINWVKQRPGQGLEWIGWIYPGSGNTKYNEKFKGKATLTVDTSSSIAYMHLSSLTSEDSAVYFCAGDRFDYWGQGTTLTVSS VL: QIVLTQSPAIMSASPGEKVTLTCSASSGVSSSYLYWYQQKPGSSPKLWIYSTSNLASGVPARFSGSGSGTSYSLTISNMETEDAASYFCHQWSNSPYTFGGGTKLEIK | 1.39 | 1.3 | 0.247 |  | 1.53 | 
mAb15 (antibody, V domains shown, also called JTx mAb 15; TIM-3 mAb15) VH: QVQLKESGPGLVAPSQSLSITCTVSGFSLTGYGVTWVRQPPGKGLEWLGMIWGDGNTDYNSGLKSRLNISKDNSKSQVFLKMNSLQTDDTARYYCARSYYYGPPDYWGQGTTLTVSS VL: not shown |  |  |  | 1.29 |  | 
mAb22 (antibody, V domains shown, Mouse hybridoma antibody) VH: EVQLVESGGDLVKPGGSLKLSCAASGFTFSNHGMSWVRQTPDKRLEWVATISSGGSNTYFPDSVKGRFTISRDNVKNSLYLQMSSLKSEDTAMYYCARHGTSMIKEWFAYWGQGTLVTVSA VL: DIVMTQSPVTLSVTPGDRVSLSCRASQSIGDYLHWYQQKSHESPRLLIKYASQSISGIPSRFSGSGSGSDFTLNINSVEPEDVGVYYCQHSHSFPPTFGGGTRLEIK | 2.13 | 2.06 | 0.91 |  | 2.22 | 
mAb58 (antibody, V domains shown) VH: QIQLVQSGPELKKPGETVKISCKASGYTFTTYGMSWVKQAPGKGLKLMGWINTYSGAPTYADDFKGRFAFSLETSASAAYLQINNLKNEDTATYFCARKPPHYYVNSFDYWGQGTTLTVSS VL: DIVMTQSPATLSVTPGDRVSLSCRASQSISDYLHWYQQKSHESPRLLIKYASQSISGIPSRFSGSGSGSDFTLSINSVEPEDVGVYYCQNGHSFPYTFGGGTKLEIK | 1.39 | 1.83 | 1.39 | 0.855 | 1.9 | 0.338

Reference: patent publication US20160200815A1 (JOUNCE THERAPEUTICS, published 2016)
